For one data set, the system named is BrCCCBr. As to the kind of experiment: purified protein. The conditions noted are these: 100 mM glycine buffer pH 8.6, 37 °C, cooperativity and partial substrate inhibition.
Another data set deals with N#CCCCBr. The data set can be described thus: purified protein. To be noted: 100 mM glycine buffer pH 8.6, 37 °C, substrate inhibition.
Data set [1] concerns the target haloalkane dehalogenase DmxA wild type from Marinobacter sp. ELB17 (Marinobacter sp. ELB17). As to the kind of experiment: SEC; gel filtration chromatography of purified DmxA wt; conditions not told in the text shown.
The target is the same in data set [2]. The data set can be described thus: not stated; DmxA wt in solution; the discussion does not say which experiment gave the share of dimer.
For data set [3] the target is unchanged. As to the kind of experiment: native gel or EMSA; native polyacrylamide gel, 4 °C, 115 V, Coomassie stain; reduced (10 mM DTT, degassed, nitrogen) and non-reduced samples compared; LinB (34 kDa, monomer) and DbjA (66 kDa, dimer) as size standards. On the technique in general: Mobility shift assays separate free from complexed probe on a gel.

The term Km denotes the substrate concentration at which the rate is half of its maximum. In general, kcat refers to the maximal rate divided by the concentration of active sites. For orientation: stoichiometry N means the number of molecules, sites or subunits per partner or assembly.

For the substance DmxA (Marinobacter sp. ELB17), in the data set on BrCCCBr, the Km worked out at 30 µM and the kcat came out at 2.61 s⁻¹. Moreover, in the data set with N#CCCCBr, the Km came out at 670 µM and the kcat was 1.89 s⁻¹.
For the substance “haloalkane dehalogenase DmxA wild type from Marinobacter sp. ELB17 (enzyme)”, the stoichiometry N in data set [1] and in data set [3] was 2 in each case. Moreover, the percent of the enzyme present as a dimer in data set [2] was below 30%.

The values above are taken from article PMC6920932.
